“Also recorded” adds a separate entry of the source.
B1: TNS3-WT: wild-type tensin3 (Homo sapiens), N-terminally labeled with GFP or mCherry, expressed in cells (protein, UniProt Q68CZ2 1-1445, looked up)
chain: MEEGHGLDLTYITERIIAVSFPAGCSEESYLHNLQEVTRMLKSKHGDNYLVLNLSEKRYDLTKLNPKIMDVGWPELHAPPLDKMCTICKAQESWLNSNLQHVVVIHCRGGKGRIGVVISSYMHFTNVSASADQALDRFAMKKFYDDKVSALMQPSQKRYVQFLSGLLSGSVKMNASPLFLHFVILHGTPNFDTGGVCRPFLKLYQAMQPVYTSGIYNVGPENPSRICIVIEPAQLLKGDVMVKCYHKKYRSATRDVIFRLQFHTGAVQGYGLVFGKEDLDNASKDDRFPDYGKVELVFSATPEKIQGSEHLYNDHGVIVDYNTTDPLIRWDSYENLSADGEVLHTQGPVDGSLYAKVRKKSSSDPGIPGGPQAIPATNSPDHSDHTLSVSSDSGHSTASARTDKTEERLAPGTRRGLSAQEKAELDQLLSGFGLEDPGSSLKEMTDARSKYSGTRHVVPAQVHVNGDAALKDRETDILDDEMPHHDLHSVDSLGTLSSSEGPQSAHLGPFTCHKSSQNSLLSDGFGSNVGEDPQGTLVPDLGLGMDGPYERERTFGSREPKQPQPLLRKPSVSAQMQAYGQSSYSTQTWVRQQQMVVAHQYSFAPDGEARLVSRCPADNPGLVQAQPRVPLTPTRGTSSRVAVQRGVGSGPHPPDTQQPSPSKAFKPRFPGDQVVNGAGPELSTGPSPGSPTLDIDQSIEQLNRLILELDPTFEPIPTHMNALGSQANGSVSPDSVGGGLRASSRLPDTGEGPSRATGRQGSSAEQPLGGRLRKLSLGQYDNDAGGQLPFSKCAWGKAGVDYAPNLPPFPSPADVKETMTPGYPQDLDIIDGRILSSKESMCSTPAFPVSPETPYVKTALRHPPFSPPEPPLSSPASQHKGGREPRSCPETLTHAVGMSESPIGPKSTMLRADASSTPSFQQAFASSCTISSNGPGQRRESSSSAERQWVESSPKPMVSLLGSGRPTGSPLSAEFSGTRKDSPVLSCFPPSELQAPFHSHELSLAEPPDSLAPPSSQAFLGFGTAPVGSGLPPEEDLGALLANSHGASPTPSIPLTATGAADNGFLSHNFLTVAPGHSSHHSPGLQGQGVTLPGQPPLPEKKRASEGDRSLGSVSPSSSGFSSPHSGSTISIPFPNVLPDFSKASEAASPLPDSPGDKLVIVKFVQDTSKFWYKADISREQAIAMLKDKEPGSFIVRDSHSFRGAYGLAMKVATPPPSVLQLNKKAGDLANELVRHFLIECTPKGVRLKGCSNEPYFGSLTALVCQHSITPLALPCKLLIPERDPLEEIAESSPQTAANSAAELLKQGAACNVWYLNSVEMESLTGHQAIQKALSITLVQEPPPVSTVVHFKVSAQGITLTDNQRKLFFRRHYPVNSVIFCALDPQDRKWIKDGPSSKVFGFVARKQGSATDNVCHLFAEHDPEQPASAIVNFVSKVMIGSPKKV
modifications: full-length N-terminal GFP or mCherry tag
notes: wild-type tensin3 (Homo sapiens), N-terminally labeled with GFP or mCherry, expressed in cells
B2: endogenous tensin3: endogenous tensin3 in primary human foreskin fibroblasts (protein, UniProt Q68CZ2 1-1445, looked up)
Tensin-3: B1 chain

Experiments:
[1] = system: β1 integrin, TLNKO cells; test: β1 integrin activation by flow cytometry, TLNKO cells; format: cell-based
Procedure: To measure the level of β1 integrin activation, TLNKO cells were transfected in a 6-well plate for flow cytometry analysis. Cells were collected, washed, and resuspended in ice-cold staining buffer (1% BSA in PBS) before incubation with 9EG7 antibody (diluted 1:200 in staining buffer) for 1 h on ice. The cells were then washed three times with staining buffer. Alexa Fluor Plus 647 goat anti-rat (1:500 dilution in staining buffer, Invitrogen) secondary antibody was used to incubate the cells for 45 min on ice, before being washed twice with staining buffer and once with PBS. The cells were then fixed with 4% PFA for 15 min before a final wash with PBS. Flow cytometry analysis was performed using a Fortessa system (BD Biosciences) and FlowJo software.

[2] = system: NIH3T3 cells; test: client protein recruitment to tensin3 condensates; format: cell-based, mouse; settings: co-expressed or endogenous
Text: Since the observed tensin3 condensates were derived from adhesion sites in a talin-regulated mechanosensitive manner, we wondered whether these condensates contain other adhesion components or signaling molecules. To address this question, we examined a selection of cell–matrix adhesion proteins that have been reported by others to be present in LLPS condensates. These proteins include LIMD1 ([Wang et al., 2021]), kindlin2 ([Hsu et al., 2023]), talin ([Hsu et al., 2023]; [Litschel et al., 2024]), KANK ([Guo et al., 2023]), tensin1 ([Lee et al., 2023]), vinculin ([Litschel et al., 2024]), and GIT1 ([Zhu et al., 2020]). We added the actin regulatory RhoGAP DLC1 to this selection, as it is known to bind tensin ([Liao et al., 2006]; [Shih et al., 2015]), and the RNA regulatory protein GIGYF1, which we had previously identified alongside many of the aforementioned proteins in tensin BioID datasets ([Atherton et al., 2022]). We also added stress granule components G3BP1 ([Tourrière et al., […]]) and TDP-43 ([Colombrita et al., 2009]). These proteins were either co-expressed as fluorescently tagged proteins (Fig. S4 I) or, where antibodies were available, probed endogenously in cells that formed GFP-TNS3 condensates (Fig. 8 A).
(§1) Cells were fixed in 4% paraformaldehyde (PFA, Sigma-Aldrich), which had been prewarmed to 37°C for 15 min before being washed three times with PBS. For immunofluorescence staining, cells were permeabilized with 0.5% Triton X-100 (Sigma-Aldrich) at room temperature for 5 min before being washed three times with PBS. Blebbistatin (Tocris Bioscience) was diluted in dimethyl sulfoxide (Sigma-Aldrich) and used at a final concentration of 50 μM. The following primary antibodies were diluted in 1% bovine serum albumin (BSA, Sigma-Aldrich): mouse anti-α5 integrin (SNAKA51, 1:100, NBP2-50146; Novus Biologicals), rat anti-β1 integrin (9EG7, 1:200; 553715; BD Biosciences), mouse anti-FN (IST-9, 1:100, ab6328; Abcam), rabbit anti-tensin3 (1:200, HPA055338; Atlas), mouse anti-EEA1 (1:500, 68065-1-IG; Proteintech), mouse anti-LAMP1 (1:200, ab320851; Abcam), mouse anti-paxillin (349, 1:400, mab3060; Sigma-Aldrich), rabbit anti-talin1 (1:200, 82856-4-RR; Proteintech), mouse anti-vinculin (hVin1, 1:500, V9264; Sigma-Aldrich), rabbit anti-KANK2 (1:100, HPA015643; Sigma-Aldrich), rabbit anti-kindlin2 (1:100, 11453-1-AP; Proteintech), rabbit anti-GIT1 (1:200, 26247-1-AP; Proteintech), mouse anti-phosphotyrosine (4G10, 1:200, 05-321X; Sigma-Aldrich), rabbit anti-G3BP1 (1:600, 13057-2-AP; Proteintech), rabbit anti-TDP43 (1:400, 10782-2-AP; Proteintech), and rabbit anti-GIGYF1 (1:400, ab121784; Abcam). […]

[3] = system: NIH3T3 cells; test: adhesion stability under blebbistatin, NIH3T3 cells; format: cell-based, mouse; settings: blebbistatin 50 µM, 60 min; n = 64 (WT), 49 (L702E), 62 (ΔPTB), 71 (Cterm) cells
Procedure: (§2) Cells were fixed in 4% paraformaldehyde (PFA, Sigma-Aldrich), which had been prewarmed to 37°C for 15 min before being washed three times with PBS. For immunofluorescence staining, cells were permeabilized with 0.5% Triton X-100 (Sigma-Aldrich) at room temperature for 5 min before being washed three times with PBS. Blebbistatin (Tocris Bioscience) was diluted in dimethyl sulfoxide (Sigma-Aldrich) and used at a final concentration of 50 μM. […]
(§3) Analysis of cell adhesion sites, FN fibrils, and LLPS condensates was performed using FIJI/ImageJ (version 1.54f) software ([Schindelin et al., 2012]). […] Prior to adhesion quantification, the images were background-subtracted using a rolling ball algorithm, followed by thresholding of adhesion sites and Analyse Particles functions in FIJI/ImageJ to quantify adhesions. Adhesion sites with sizes between 0.4 and 10 μm^2 were counted, except for adhesions in blebbistatin-treated cells, which were counted with sizes between 0.2 and 4 μm^2. […]

[4] = system: NIH3T3 cells; test: tensin3 condensate formation, NIH3T3 cells; format: cell-based, mouse; settings: n = 181 cells (WT), 168 cells (L702E)
Procedure: (§4) To establish a correlation between tensin3 expression and condensation formation, a maximum intensity Z-projection was performed on Z-stack images of NIH3T3 cells (step depth 0.2 μm). The integrated fluorescence intensity was measured by normalizing the mean pixel intensity of each cell to the average of all values in cells expressing mCh-TNS3. To measure the condensate coverage in NIH3T3 cells, the images were background-subtracted (rolling ball) and then thresholded. This was followed by the Analyse Particles function in FIJI/ImageJ to select round condensate structures (circularity 0.7–1.0) ([Bussi et al., 2023]; [Dumelie et al., 2024]) with a size larger than 0.1 μm^2. The same settings were applied to quantify the number of condensates in NIH3T3 and HFF cells.
The percentage of NIH3T3 cells transfected with mCh-TNS3 that form phase-separated condensates was quantified manually in images (610 × 499 μm) acquired with a 20× objective. To quantify the mean radius (R) of the condensates, the area covered by the condensates was divided by the number of condensates for each cell to obtain the mean size (A) of the condensates, followed by the formula of R = √(A/3.14).

[5] = system: active β1 integrin, TLNKO cells; test: 9EG7-positive (active β1 integrin) adhesions, TLNKO cells; format: cell-based; settings: co-expressed with GFP-TLN1, vs talin1 and vector control
Procedure: as §2, §3

[6] = system: U2OS TNS3KO cells; test: adhesion stability under blebbistatin, U2OS TNS3KO cells; format: cell-based, human; settings: blebbistatin 50 µM
Procedure: as §1, §3

[7] = system: NIH3T3 cells; test: condensates on soft vs stiff PDMS, NIH3T3 cells; format: cell-based, mouse; settings: 1.5 kPa vs 28 kPa FN-coated PDMS, overnight
Procedure: (§5) Imaging dishes equipped with 40 µm-thick PDMS substrates (1.5 and 28 kPa) were purchased from ibidi. PDMS dishes were coated with 30 μg/ml FN for 1 h, followed by three washes with PBS. Dishes were incubated with DMEM for 10 min to equilibrate before cells were plated and incubated overnight at 37°C.
as §4

[8] = system: U2OS TNS3KO cells; test: α5 integrin-positive FBs, rescue of TNS3KO cells; format: cell-based, human; settings: FN-coated, overnight; SNAKA51 antibody
Procedure: as §2, §3

[9] = system: active β1 integrin, U2OS TNS3KO cells; test: β1 integrin-positive adhesions, U2OS TNS3KO cells; format: cell-based, human; settings: FN-coated, overnight; 9EG7
Procedure: as §2, §3

[10] = system: TLNKO cells; test: cell spreading of TLNKO cells; format: cell-based; settings: tensin3 expressed alone in TLNKO cells
Procedure: as §1

[11] = system: HFF cells; test: endogenous tensin3 condensates on soft vs stiff PDMS, HFF cells; format: cell-based, human; settings: 1.5 kPa vs 28 kPa FN-coated PDMS, overnight; n = 33 and 40 cells
Procedure: as §5, §4

| Molecule | integrin activation, flow cytometry ([1]; co-expressed with GFP-TLN1, vs mCh-vector, triplicate) | rescue of integrin activation ([1]; tensin3 expressed alone in TLNKO cells, 9EG7) | proteins detected in condensates [2] | proteins absent from condensates ([2]; listed as GFP-TNS3) | construct-positive adhesions after blebbistatin [3] | Spearman's r, expression level vs condensate coverage [4] | fold change in 9EG7-positive adhesion sites [5] | subcellular localization of construct under blebbistatin [6] | adhesion stability under actomyosin inhibition ([6]; 60 min) | condensates on soft vs stiff substrate [7] | α5 integrin-positive adhesions [8] | rescue of adhesion formation [9] | rescue of cell spreading [10] | increase in tensin3 spheres on soft vs stiff substrate [11] |
| --- | --- | --- | --- | --- | --- | --- | --- | --- | --- | --- | --- | --- | --- | --- |
| B1 | increased integrin activation | did not rescue cell spreading (Fig. S3 A) or integrin activation | talin1 and talin2, vinculin, tensin1, and LIMD1, together with the microtubule-targeting protein KANK1 and KANK2, and DLC1 and GIGYF1 | kindlin2 and GIT1, which regulate membrane protrusion ([Böttcher et al., 2017]; [Manabe et al., 2002]), were absent; also recorded: negative for G3BP1, TDP-43 (Fig. S4 J), or tyrosine phosphorylation | largely remain after blebbistatin treatment | 0.8773 | fivefold increase in adhesion sites | remained in adhesion structures | remained present despite actomyosin inhibition | significant twofold increase | α5 integrin-positive adhesions in the peripheral and central areas of the cells | fully rescued adhesion formation | did not rescue cell spreading | – |
| B2 | – | – | – | – | – | – | – | – | – | – | – | – | – | 3.6 fold |

Reference: article PMC12637021, “Talin–tensin3 interactions regulate fibrillar adhesion formation and tensin3 phase separation” (The Journal of Cell Biology, 2025)
